Assay results published in publication PMC12964555, “Fecal Detection of Calprotectin Subunits Links Inflammatory Bowel Disease Activity With Chronicity of Intestinal Inflammation” (Gastroenterology, 2025).

T1: human recombinant S100A9 (human), P06702
T1 chain: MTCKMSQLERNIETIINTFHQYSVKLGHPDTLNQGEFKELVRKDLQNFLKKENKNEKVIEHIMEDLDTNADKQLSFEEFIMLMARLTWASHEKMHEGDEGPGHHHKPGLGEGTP

T2: human recombinant S100A9 (human, UniProt P06702 1-114)
T2 construct: S100A9, human, recombinant; Alone it runs as a homodimer by SEC; In the 1:1 mix with S100A8 it forms the calprotectin heterotetramer; also called S100A9 homodimers; source: human recombinant, generated by the authors, purity confirmed
T2 sequence (looked up): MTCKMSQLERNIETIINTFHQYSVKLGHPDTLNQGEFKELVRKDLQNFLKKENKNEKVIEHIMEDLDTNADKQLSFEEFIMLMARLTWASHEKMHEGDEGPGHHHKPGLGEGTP


Legend:
Experiment in all cases: SEC; human recombinant S100A8, S100A9 or their 1:1 mix (CP) run as reference proteins; sizes read from the elution
[1] = biological target: T1, human recombinant S100A9 (human), P06702
[2] = biological target: the molecule itself
human recombinant S100A9 = biological target: T2, human recombinant S100A9; details: both partners purified

| stoichiometry N [1] | binding result (human recombinant S100A9) | Binder | stoichiometry N [2] |
| --- | --- | --- | --- |
| 2 |  | human recombinant S100A9, P06702 1-114 (natural protein) MTCKMSQLERNIETIINTFHQYSVKLGHPDTLNQGEFKELVRKDLQNFLKKENKNEKVIEHIMEDLDTNADKQLSFEEFIMLMARLTWASHEKMHEGDEGPGHHHKPGLGEGTP |  |
|  | binds | human recombinant S100A8 (natural protein, UniProt P05109 1-93, looked up, S100A8, human, recombinant; Alone it runs as a homodimer by SEC; In the 1:1 mix with S100A9 it forms the calprotectin heterotetramer; also called S100A8 homodimers; S100A8/S100A8 homodimers; source: human recombinant, generated by the authors, purity confirmed) MLTELEKALNSIIDVYHKYSLIKGNFHAVYRDDLKKLLETECPQYIRKKGADVWFKELDINTDGAVNFQEFLILVIKMGVAAHKKSHEESHKE | 2 |
